Laboratory results: the RNAGym collection of RNA variant scans (doi:10.7554/elife.90254)

B1: LINE1-full (parent)
chain: UACGUAGGUGGUUUUCCCCUGAUAGUGCUAAGGGGGCCUGGAAGUUUGGACUGGGCAGAGCUCAACACAGCGUGGCAAAGUGGCUGUGGCUAGACUGCCUCUCUGGAUUCCUCGUCACUCAGCAGGGCAUCUCUGAGAGAAAUGCC

Variants of: B1
Test: self-cleavage, relative activity (ratio to wild type); higher = more cleavage; in vitro, sequencing; the parent is a self-cleaving ribozyme
Work on UACGUAGGUGGUUUUCCCCUGAUAGUGCUAAGGGGGCCUGGAAGUUUGGACUGGGCAGAGCUCAACACAGCGUGGCAAAGUGGCUGAGGCUAGACUGCCUCUCUGGAUUCCUCGUCACUCAGCAGGGCAUCUCUGAGAGAAAUGUC yielded a self-cleavage of 0.1.
UACGUAGGUGGUUUUCCCCUGAUAGUGCUAAGGGGGCCUGGAAGUUUGGACUGGGCAGAGCUCAACACAGCGUGGCAAAGUGGCUGUGGCUAGACUGCCUCUCUGGAUUCCUCGUCACUCAGCAGGGCAUCUCAGAGAGAAAUGCC showed a self-cleavage of 0.98.
Work on UACGUAGGUGGUUUUCCCCUGAUAGUGCUAAGGGGGCCUGGAAGUUUGGACUGGGCAGAGCUCAUCACAGCGUGGCAAAGUGGCUGUGGCUAGACUGCCUCUCUGGAUUCCUCGUCACUCUGCAGGGCAUCUCUGAGAGAAAUGCC yielded a self-cleavage of 0.24.
Work on UACGUAGGUGGUUUUCCCCAGAUAGUGCUAAGGGCGCCUGGAAGUUUGGACUGGGCAGAGCUCAACACAGCGUGGCAAAGUGGCUGUGGCUAGACUGCCUCUCUGGAUUCCUCGUCACUCAGCAGGGCAUCUCUGAGAGAAAUGCC yielded a self-cleavage of 1.12.
Variant UACGUAGGUGGUUUUCCCCUGGUAGUACUAAGGGGGCCUGGAAGUUUGGACUGGGCAGAGCUCAACACAGCGUGGCAAAGUGGCUGUGGCUAGACUGCCUCUCUGGAUUCCUCGUCACUCAGCAGGGCAUCUCUGAGAGAAAUGCC has a self-cleavage of 1.
UACGUAGGUGGUUUUCCCCUGAUAGCGCUAAGGGGGCCUGGAAGUUUGGACUGGGCAGAGCUCAACACAGCGUGGCAAAGUGGCUGUGGCUAAACUGCCUCUCUGGAUUCCUCGUCACUCAGCAGGGCAUCUCUGAGAGAAAUGCC showed a self-cleavage of 0.03.
Variant UACGUAGGUGGUUUUCCCCUGAUAGUGCUAAGGGGGCCUGGAAGUCUGGACUGGGCAGAGCUCAACACAGCGUGGCAAAGUGGCUGUGGCUAGACUGCCUCUCUGGAUUCCUCGUCACUCAGCAGGGCCUCUCUGAGAGAAAUGCC has a self-cleavage of 1.99.
For UACGUAGGUGGUUUUCCCCUGAUAGUGCUAAGGGGGCCUGGAAGUUUGGACCGGGCAGAGCUCAACACAGCGUGGCAAAGUGGCUGUGGCAAGACUGCCUCUCUGGAUUCCUCGUCACUCAGCAGGGCAUCUCUGAGAGAAAUGCC, the self-cleavage was 0.49.
UACGUAGGUGGUUUUCCCCUGAUAGUGCCAAGGGGGCCUGGAAGUUUGGACUGGGCAGAGCUCAACACAGCGUGGCAAAGCGGCUGUGGCUAGACUGCCUCUCUGGAUUCCUCGUCACUCAGCAGGGCAUCUCUGAGAGAAAUGCC gave a self-cleavage of 1.27.
UACGUAGGUGGUUUUCCCCUGAUAGUGCUAAGGGGGCCUGGGAGUUUGGACUGGGCAGAGCUCAACACAGCGUGGCAAAGUGGCUGUGGCUAGACUGCCUCUCUGGAUUCCUCGACACUCAGCAGGGCAUCUCUGAGAGAAAUGCC gave a self-cleavage of 1.24.
UACGUAGGUGGUUUUCCCCUGAUAGUGCUAAGGGGGCCUGGAAGUUUGGACUAGGCAGAGCUCAACACAGCGUGGCAAAGUGGCUGUGGCUAGACUGCCUCUCUGGAUUCCUCGUCACUCAGCGGGGCAUCUCUGAGAGAAAUGCC gave a self-cleavage of 0.77.
In the case of UACGUAGGUGGUUUUCCCCUGAUAGUGCUAAGGGGGCCUGGAAGUUUGGACUGGGCAGAGCUCAGCACAGCGUGGCAAAGUGGCUGUGGCUAGACCGCCUCUCUGGAUUCCUCGUCACUCAGCAGGGCAUCUCUGAGAGAAAUGCC, the self-cleavage is reported as 0.08.
With UACGUAGGUGGUUUUCCCCUGAUAGUGCUCAGGGGGCCUGGAAGUUUGGACUGGGCAGAGCUCAACACAGCGUGGCAAAGUGGCUGUGGCUAGACUGCCUCUCUGGAUUCCUCGUCACUCAGCAGGGCAUCUCUGAGAGGAAUGCC the self-cleavage was 1.
Variant UACGUAGGUGGUUUUCCCCUGAUAGUGCUAAGGGGGCCUGGAAGUUUGGACUGGGCAGAGCUCAACACAGCGUGGCAAAGUGGCUGUGGCUAGACUGCCUCUCUGGAUUCCUCGGCACUCAGCAGGGCAUCUCUGAGAGAGAUGCC has a self-cleavage of 1.25.
In the case of UACGUAGGUGGUUUUCCCCUGAUAGUGCUUAGGGGGCCUGGAAGUUUGGACUGGGCAGAGCUCACCACAGCGUGGCAAAGUGGCUGUGGCUAGACUGCCUCUCUGGAUUCCUCGUCACUCAGCAGGGCAUCUCUGAGAGAAAUGCC, the self-cleavage is reported as 0.1.
With UACGUAGGUGGUUUUCCCCUGAUAGUGCUAAGGGGGCCUGGAAGUUUGGACUGGGCAGAGCUCAACACAGCUUGGUAAAGUGGCUGUGGCUAGACUGCCUCUCUGGAUUCCUCGUCACUCAGCAGGGCAUCUCUGAGAGAAAUGCC the self-cleavage was 2.1.
In the case of UACGUAGGUGGUUUUCCCCUGAUAGUGCUAAGGGGGCCUGGAAGUUUGGACUGGGCAGAGCUCAACGCAGCGUGGCAAAGUGGCUGUGGCUAGACUGCCUCUCUGGAUUCCUCGUCACUCGGCAGGGCAUCUCUGAGAGAAAUGCC, the self-cleavage is reported as 0.53.
UACGUAGGUGGUUUUCCCCUGAUAGUGCUAAGGGGGCCUGGAAGUUUGGACUGGGCAGAGCUCAACACAGCGUGGCAAAGUGGCUGUGGCUAGACCGCCUCUCUGGAUUCCUCGUCACUCAGCAGGGCAUCUCUGAGAGAAACGCC gave a self-cleavage of 0.14.
Variant UACGUAAGUGGUUUUCCUCUGAUAGUGCUAAGGGGGCCUGGAAGUUUGGACUGGGCAGAGCUCAACACAGCGUGGCAAAGUGGCUGUGGCUAGACUGCCUCUCUGGAUUCCUCGUCACUCAGCAGGGCAUCUCUGAGAGAAAUGCC has a self-cleavage of 1.59.
UACGUAGGUAGUUUUCCCCUGAUAGUGCUAAGGGGGCCUGGAAGUUUGGACUGGGCAGAGCUCAACACAGCGUGGCAAAGUGGCCGUGGCUAGACUGCCUCUCUGGAUUCCUCGUCACUCAGCAGGGCAUCUCUGAGAGAAAUGCC gave a self-cleavage of 0.09.
UACGUAGGUGGUUUUCCCCUGAUAGUGCUGAGGGGGCCUGGAAGUUUGGACUGGGCAGAGCUCAACACAGCGUGGCAAAGUGGCUGUGGCUAGACUGCCUCUCUGGAUACCUCGUCACUCAGCAGGGCAUCUCUGAGAGAAAUGCC showed a self-cleavage of 1.38.
UACGUAGGUGGUUUUCCCCUGAUUGUGCUAAGGGGGCCUGGAAGUUUGGACUGGGCAGAGCUCAACACAGCGUGGCAAAGUGGCUGCGGCUAGACUGCCUCUCUGGAUUCCUCGUCACUCAGCAGGGCAUCUCUGAGAGAAAUGCC gave a self-cleavage of 0.3.
UACGUAGGUGGUUUUCCCCUGAUAGUGCUAAGGGGGCCUGGAAGUUUGGACUGGGCAGAGCUCAACACAGCGUUGCAAAGUGGCUGUGGCUAGACUGCCUCUCUGGAUUCCUCGUCACUCAGCAGGGCAUCUCUGAGAGAGAUGCC showed a self-cleavage of 1.68.
Work on UACGUAGGUGGUUUUCCCCUGGUAGUGCUAAGGGGGCCUGGAAGUUUGGACUGGGCAGAGCUCAACACAGCGUGGCAAAGUGGCUGUGGCUAGACUGCCUCUCUGGAUUCCUCGUCACUCAGCAGGGCAUGUCUGAGAGAAAUGCC yielded a self-cleavage of 1.8.
UACGUAGGUGGUUUUCCCCUGAUAGUGCUGAGGGGGCCUGGAAGUUUGGACUGGGCAGAGCUCAACACAGCGAGGCAAAGUGGCUGUGGCUAGACUGCCUCUCUGGAUUCCUCGUCACUCAGCAGGGCAUCUCUGAGAGAAAUGCC gave a self-cleavage of 1.19.
In the case of UACGUAGGAGGUUUUCCCCUGAUAGUGCUAAGGGGGCCUGGAAGUUUGGACUGGGCAGAGCUCAACACAGCGUGGCAAAGUGGCUGUGGCUAGACUGCCUCUCUGGAUUCCUCGUCACUCAGCAGGGCAUCUCUGAGAGGAAUGCC, the self-cleavage is reported as 1.11.
For UACGUAGGUGGUUUUCCCCUGAUAGUGCUAAGGGGGUCUGGAAGUUUGGACUGGGCAGAGCUCAACACAGCGUGGCAAAGUGGCUGUGGCUAGACUGCCUCUCUGGAUUCCUCGUCACUCAGUAGGGCAUCUCUGAGAGAAAUGCC, the self-cleavage was 1.67.
Work on UACGUAGGUGGUUUUCCCCUGAUAGUGCUAAGGGAGCCUGGAAGUUUGGACUGGGCAGAGCUCAACACAGCAUGGCAAAGUGGCUGUGGCUAGACUGCCUCUCUGGAUUCCUCGUCACUCAGCAGGGCAUCUCUGAGAGAAAUGCC yielded a self-cleavage of 1.18.
UACGUAGGUGGUUUUCCCCUGAUAGUGCUAAGGGGGCCUGGAAGUUUGGACUGGGCAGAGCUCAACACAGCGUGGCAAAGUGGCUGUGGCUAGACUGCCUCUCUGGAUUCCUCGUCACUCAGCAGGGCAUCUCUGAGAGAAAUUCC gave a self-cleavage of 1.58.
For UACGUAGGUGGUUUUCCCCUGAUAGUGCUAAGGGGGCCUGGAAGUUAGGACUGGGCAGAGCUCGACACAGCGUGGCAAAGUGGCUGUGGCUAGACUGCCUCUCUGGAUUCCUCGUCACUCAGCAGGGCAUCUCUGAGAGAAAUGCC, the self-cleavage was 0.2.
UACGUAGGUGGUUUUCCCCAGAUAGUGCUAAGGGGGCCUGGAAGUUUGGACUAGGCAGAGCUCAACACAGCGUGGCAAAGUGGCUGUGGCUAGACUGCCUCUCUGGAUUCCUCGUCACUCAGCAGGGCAUCUCUGAGAGAAAUGCC gave a self-cleavage of 1.01.
In the case of UACGUAGGUGGUUUUCUCCUGAUAGUGCUAAGGGGGCCUGGAAGUUUGGACUGGGCAGAGCUCAACACAGCGUGGCAAAGAGGCUGUGGCUAGACUGCCUCUCUGGAUUCCUCGUCACUCAGCAGGGCAUCUCUGAGAGAAAUGCC, the self-cleavage is reported as 1.53.
UACGUAGGUGGUUUUCCCCUGAUCGUGCUAAGGGGGCCUGGAAGUUUGGAUUGGGCAGAGCUCAACACAGCGUGGCAAAGUGGCUGUGGCUAGACUGCCUCUCUGGAUUCCUCGUCACUCAGCAGGGCAUCUCUGAGAGAAAUGCC showed a self-cleavage of 1.37.
UACGUAGGUGGUUUUCCCCUGAUAGUGCUAAGGGGGCCUGGAAGUAUGGACUGGGCAGAGCUCAACACAGCGUGUCAAAGUGGCUGUGGCUAGACUGCCUCUCUGGAUUCCUCGUCACUCAGCAGGGCAUCUCUGAGAGAAAUGCC showed a self-cleavage of 0.84.
UACGUAGGUGGUUUUCCCCUGAUAGUGAUAAGGGGGCCUGGAAGUUUGGACUGGGCAGAGCUCAACACAGCGUGGCAAAGUGGCUGUGGCUAGACUGCCUCACUGGAUUCCUCGUCACUCAGCAGGGCAUCUCUGAGAGAAAUGCC showed a self-cleavage of 1.12.
UACGUAGGUGGAUUUCCCCUGAUAGUGCUAAGGGGGCCUGGAAGUUUGGACUGGGCAGAGCUCAACACAGCGUGGCAAAGUGGCUGUGGCUAGACUGCCUCUCUGGAUUCCUCGUCACUCAGCAGGGCAUCUCUGAGAGAAGUGCC showed a self-cleavage of 1.31.
Variant UACGUAGGUGGUUUUCCCCUGAUAGUGCCAAGGGGGCCUGGAACUUUGGACUGGGCAGAGCUCAACACAGCGUGGCAAAGUGGCUGUGGCUAGACUGCCUCUCUGGAUUCCUCGUCACUCAGCAGGGCAUCUCUGAGAGAAAUGCC has a self-cleavage of 1.82.
Work on UACGUAGGCGGUUUUCCCCUGAUAGUGCUAAGGGGGCCUGGAAGUUUGGACUGGGCAGAGCUCAACACAGCGUGGCAAAGUGGAUGUGGCUAGACUGCCUCUCUGGAUUCCUCGUCACUCAGCAGGGCAUCUCUGAGAGAAAUGCC yielded a self-cleavage of 0.26.
For UACGUAGGUGGUUUUCCCCUGAUAGUUCUAAGGGGGCCUGGAAGUUUGGACUGGGCAGAGCUCAACACAGCGUGGCAAAGUGGAUGUGGCUAGACUGCCUCUCUGGAUUCCUCGUCACUCAGCAGGGCAUCUCUGAGAGAAAUGCC, the self-cleavage was 0.1.
